Test results as given in publication PMC2408616, “Modular Organization and Combinatorial Energetics of Proline–Tyrosine Nuclear Localization Signals” (PLoS Biology, 2008).

B1: MBP–Hrp1p NLS [S. cerevisiae] / Kap104p [yeast (S. cerevisiae)] (parent)
chain 1: RDRNDRDRDYNHRSGGNHRRNGRGGRGGYNRRNNGYHPYNR
chain 2: MASTWKPAEDYVLQLATLLQNCMSPNPEIRNNAMEAMENFQLQPEFLNYLCYILIEGESDDVLKQHYSLQDLQNNRATAGMLLKNSMLGGNNLIKSNSHDLGYVKSNIIHGLYNSNNNLVSNVTGIVITTLFSTYYRQHRDDPTGLQMLYQLLELTSNGNEPSIKALSKIMEDSAQFFQLEWSGNTKPMEALLDSFFRFISNPNFSPVIRSESVKCINTVIPLQTQSFIVRLDKFLEIIFQLAQNDENDLVRAQICISFSFLLEFRPDKLVSHLDGIVQFMLHLITTVNEEKVAIEACEFLHAFATSPNIPEHILQPYVKDIVPILLSKMVYNEESIVLLEASNDDDAFLEDKDEDIKPIAPRIVKKKEAGNGEDADDNEDDDDDDDDEDGDVDTQWNLRKCSAATLDVMTNILPHQVMDIAFPFLREHLGSDRWFIREATILALGAMAEGGMKYFNDGLPALIPFLVEQLNDKWAPVRKMTCWTLSRFSPWILQDHTEFLIPVLEPIINTLMDKKKDVQEAAISSVAVFIENADSELVETLFYSQLLTSFDKCLKYYKKKNLIILYDAIGRFAEKCALDETAMQIILPPLIEKWALLSDSDKELWPLLECLSCVASSLGERFMPMAPEVYNRAFRILCHCVELEAKSHQDPTIVVPEKDFIITSLDLIDGLVQGLGAHSQDLLFPQGTKDLTILKIMLECLQDPVHEVRQSCFALLGDIVYFFNSELVIGNLEDFLKLIGTEIMHNDDSDGTPAVINAIWALGLISERIDLNTYIIDMSRIILDLFTTNTQIVDSSVMENLSVTIGKMGLTHPEVFSSGAFANDSNWNKWCLSVNALDDVEEKSSAYMGFLKIINLTSTEVTMSNDTIHKIVTGLSSNVEANVFAQEIYTFLMNHSAQISAINFTPDEISFLQQFTS
B2: MBP–Nab2p NLS [S. cerevisiae] / Kap104p [yeast (S. cerevisiae)] (parent)
chain 1: DNSQRFTQRGGGAVGKNRRGGRGGNRGGRNNNSTRFNPLAKALGMAGESNM
chain 2: B1 chain 2

Experiments:
Experiment in all cases: ITC
[1] = variants of: B1; conditions: with Kap104p [yeast (S. cerevisiae)]
[2] = variants of: B1; conditions: with Kap104p [yeast (S. cerevisiae)]; for Kd: parent: 32 nM; for ratio to parent: parent: 1
[3] = variants of: B2; conditions: with Kap104p [yeast (S. cerevisiae)]; for ratio to parent: parent: 1; for dG: parent: -10

Row | Variant | screen value [1] | ddG [2] | screen value [2] | Kd [2] | ratio to parent [2] | ddG [3] | screen value [3] | ratio to parent [3] | dG [3]
1 | chain 1 R19A Y36A | -2.2 kcal/mol/K | 0.4 kcal/mol | -11.9 kcal/mol | 60 nM | 1.9 | – | – | – | –
2 | chain 1 R19K R20K R23K R26K | -2.8 kcal/mol/K | -0.05 kcal/mol | -12.8 kcal/mol | 36 nM | 1.1 | – | – | – | –
3 | chain 1 R31A | -1.8 kcal/mol/K | 0.07 kcal/mol | -11.7 kcal/mol | – | 1.1 | – | – | – | –
4 | chain 1 R32A | -2.2 kcal/mol/K | -0.5 kcal/mol | -12.7 kcal/mol | – | 0.4 | – | – | – | –
5 | chain 1 Y36L | -0.9 kcal/mol/K | -0.02 kcal/mol | -10.9 kcal/mol | – | 1.1 | – | – | – | –
6 | chain 1 R19A R20A R23A R26A | – | – | – | 194 nM | – | – | – | – | –
7 | chain 1 Y36A | – | – | – | 143 nM | – | – | – | – | –
8 | chain 1 F36L | – | – | – | – | – | -0.3 kcal/mol | -8.4 kcal/mol | 1.8 | -9.7 kcal/mol
9 | chain 1 R18K R19K R22K R26K R29K | – | – | – | – | – | -0.4 kcal/mol | -9.9 kcal/mol | 0.6 | -10.3 kcal/mol
10 | chain 1 R18A R19A R22A R26A R29A P38A L39A | – | – | – | – | – | – | – | > 200 | –
